According to publication PMC2940854, “Crystal Structure of the RNA Recognition Motif of Yeast Translation Initiation Factor eIF3b Reveals Differences to Human eIF3b” (PLoS ONE, 2010):

Target: T1, yeast eIF3j (Hcr1) (yeast, UniProt Q05775 1-265)
T1 construct: source: E. coli Rosetta2 (DE3), pGEX-6P-1, purified (GSTrap, PreScission cleavage, second glutathione step, Superdex S-75)
Experiment: ITC; VP-ITC; 20 µL aliquots of 229 µM eIF3b-RRM^76–170 injected into the cell with 10 µM Hcr1; 200 mM NaCl, 10 mM Hepes pH 7.5, 5% glycerol; single binding site model
Details: both partners purified

T1 sequence (Q05775 whole entry): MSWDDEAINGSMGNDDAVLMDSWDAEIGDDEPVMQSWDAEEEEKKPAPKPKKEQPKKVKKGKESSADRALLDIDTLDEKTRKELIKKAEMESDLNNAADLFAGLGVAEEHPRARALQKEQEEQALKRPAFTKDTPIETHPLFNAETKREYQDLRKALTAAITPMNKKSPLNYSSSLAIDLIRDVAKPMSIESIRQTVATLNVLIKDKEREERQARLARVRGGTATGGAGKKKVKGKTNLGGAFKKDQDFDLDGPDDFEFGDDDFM

Kd: 7.5 ± 0.5 µM | dH: -9.28 ± 0.217 kcal/mol | stoichiometry N: ~1
B1: yeast eIF3b-RRM, residues 76-170 (domain or fragment, UniProt P06103 76-170, looked up)
chain: DQYIVVNGAPVIPSAKVPVLKKALTSLFSKAGKVVNMEFPIDEATGKTKGFLFVECGSMNDAKKIIKSFHGKRLDLKHRLFLYTMKDVERYNSDD
notes: also called eIF3b-RRM^76–170; RRM^76–170; source: E. coli Rosetta2 (DE3), pGEX-6P-1, purified (GSTrap, PreScission cleavage, Superdex S-75)
